This note sets out measurements from patent publication US20200123233A1.

Bounds are passed on as bounds.

B1: LG212C12 (VHH)
VHH: EVQLVESGGGLVQPGGSLRLSCAASGFTFGSSDMSWVRQAPGKGPEWVSGINSGGGRTLYADSVKGRFTISRDNAKNTLYLQMNSLKSEDTAVYYCATDLYGSSWYTDYWSQGTQVTVSS
B2: LG212F6 (VHH)
VHH: EVQLVESGGGLVQPGGSLRLSCAASGFTFGSYDMSWVRQAPGKGSEWVSHINTGGGSTTYADSVKGRFTISRDNAKNTLYLQMSSLKPEDTAVYYCATGLYGGSTDDYWGQGTQVTVSS
B3: LG212B12 (VHH)
VHH: EVQLVESGGGLVQPGGSLRLSCAASGFTFGNYDMSWVRQAPGKGPEWVSGINTGGSTLYADSVKGRFTISRDNAKNTLYLQMNSLKSEDTAVYYCAKDLYGSTWYTDYWSQGTQVTVSS
B4: NB6-18GS-NB6 (VHH)
chain: EVQLVESGGGLVQAGGSLRLSCAASGPTFSADTMGWFRQAPGKEREFVATIPWSGGIAYYSDSVKGRFTMSRDNAKNTVDLQMNSLKPEDTALYYCAGSSRIYIYSDSLSERSYDYWGQGTQVTVSSGGGGSGGGGSGGGGGGGSEVQLVESGGGLVQAGGSLRLSCAASGPTFSADTMGWFRQAPGKEREFVATIPWSGGIAYYSDSVKGRFTMSRDNAKNTVDLQMNSLKPEDTALYYCAGSSRIYIYSDSLSERSYDYWGQGTQVTVSSAAAEQKLISEEDLNGAAHHHHHH
B5: 213-E6 25GS 213-E6 (VHH)
chain: EVQLVESGGGLVQAGASLRLSCAASGSTLSRYGVGWFRQAPGKERELVASVDWSGSRTYYADSVKGRFTISRDNAKNTGYLQMNSLKPDDTAVYYCAADSSVVPGIEKYDDWGLGTQVTVSSGGGGSGGGGSGGGGSGGGGSGGGGSEVQLVESGGGLVQAGASLRLSCAASGSTLSRYGVGWFRQAPGKERELVASVDWSGSRTYYADSVKGRFTISRDNAKNTGYLQMNSLKPDDTAVYYCAADSSVVPGIEKYDDWGLGTQVTVSS
B6: 214-E8 25GS 212-C12 (VHH)
chain: EVQLVESGGGSVQAGGSLRLSCAASGGTFNPYVMAWFRQAPGNEREFVARIRWSGGDAYYDDSVKGRFAITRDAAKNTVHLQMNSLKPEDTAVYYCAAATYGYGSYTYGGSYDLWGQGTQVTVSSGGGGSGGGGSGGGGSGGGGSGGGGSEVQLVESGGGLVQPGGSLRLSCAASGFTFGSSDMSWVRQAPGKGPEWVSGINSGGGRTLYADSVKGRFTISRDNAKNTLYLQMNSLKSEDTAVYYCATDLYGSSWYTDYWSQGTQVTVSS
B7: 213-E6 5GS 212-C12 (VHH)
chain: EVQLVESGGGLVQAGASLRLSCAASGSTLSRYGVGWFRQAPGKERELVASVDWSGSRTYYADSVKGRFTISRDNAKNTGYLQMNSLKPDDTAVYYCAADSSVVPGIEKYDDWGLGTQVTVSSGGGGSEVQLVESGGGLVQPGGSLRLSCAASGFTFGSSDMSWVRQAPGKGPEWVSGINSGGGRTLYADSVKGRFTISRDNAKNTLYLQMNSLKSEDTAVYYCATDLYGSSWYTDYWSQGTQVTVSS
B8: 213-E6 25GS 214-E8 (VHH)
chain: EVQLVESGGGLVQAGASLRLSCAASGSTLSRYGVGWFRQAPGKERELVASVDWSGSRTYYADSVKGRFTISRDNAKNTGYLQMNSLKPDDTAVYYCAADSSVVPGIEKYDDWGLGTQVTVSSGGGGSGGGGSGGGGSGGGGSGGGGSEVQLVESGGGSVQAGGSLRLSCAASGGTFNPYVMAWFRQAPGNEREFVARIRWSGGDAYYDDSVKGRFAITRDAAKNTVHLQMNSLKPEDTAVYYCAAATYGYGSYTYGGSYDLWGQGTQVTVSS
B9: 214-E8 15GS 212-C12 (VHH)
chain: EVQLVESGGGSVQAGGSLRLSCAASGGTFNPYVMAWFRQAPGNEREFVARIRWSGGDAYYDDSVKGRFAITRDAAKNTVHLQMNSLKPEDTAVYYCAAATYGYGSYTYGGSYDLWGQGTQVTVSSGGGGSGGGGSGGGGSEVQLVESGGGLVQPGGSLRLSCAASGFTFGSSDMSWVRQAPGKGPEWVSGINSGGGRTLYADSVKGRFTISRDNAKNTLYLQMNSLKSEDTAVYYCATDLYGSSWYTDYWSQGTQVTVSS
B10: 214-E8 15GS 213-H7 (VHH)
chain: EVQLVESGGGSVQAGGSLRLSCAASGGTFNPYVMAWFRQAPGNEREFVARIRWSGGDAYYDDSVKGRFAITRDAAKNTVHLQMNSLKPEDTAVYYCAAATYGYGSYTYGGSYDLWGQGTQVTVSSGGGGSGGGGSGGGGSEVQLVESGGGLVQAGGSLRLSCAASGRTLSSYRMGWFRQAPGKEREFISTISWNGRSTYYADSVKGRFIFSEDNAKNTVYLQMNSLKPEDTAVYYCAAALIGGYYSDVDAWSYWGPGTQVTVSS
B11: 213-E6 15GS 213-H7 (VHH)
chain: EVQLVESGGGLVQAGASLRLSCAASGSTLSRYGVGWFRQAPGKERELVASVDWSGSRTYYADSVKGRFTISRDNAKNTGYLQMNSLKPDDTAVYYCAADSSVVPGIEKYDDWGLGTQVTVSSGGGGSGGGGSGGGGSEVQLVESGGGLVQAGGSLRLSCAASGRTLSSYRMGWFRQAPGKEREFISTISWNGRSTYYADSVKGRFIFSEDNAKNTVYLQMNSLKPEDTAVYYCAAALIGGYYSDVDAWSYWGPGTQVTVSS
B12: 214-F8 15GS 214-F8 (VHH)
chain: EVQLVESGGDLVQAGGSLRLSCVASGSTYSINAMGWYRQAPGKLRELVAAFRTGGSTDYADSVKGRFTISRDTAKNTVYLQMNSLKPEDTAVYYCNAEVIYYPYDYWGQGTQVTVSSGGGGSGGGGSGGGGSEVQLVESGGDLVQAGGSLRLSCVASGSTYSINAMGWYRQAPGKLRELVAAFRTGGSTDYADSVKGRFTISRDTAKNTVYLQMNSLKPEDTAVYYCNAEVIYYPYDYWGQGTQVTVSS
B13: 213-E6 25GS 212-C12 (VHH)
chain: EVQLVESGGGLVQAGASLRLSCAASGSTLSRYGVGWFRQAPGKERELVASVDWSGSRTYYADSVKGRFTISRDNAKNTGYLQMNSLKPDDTAVYYCAADSSVVPGIEKYDDWGLGTQVTVSSGGGGSGGGGSGGGGSGGGGSGGGGSEVQLVESGGGLVQPGGSLRLSCAASGFTFGSSDMSWVRQAPGKGPEWVSGINSGGGRTLYADSVKGRFTISRDNAKNTLYLQMNSLKSEDTAVYYCATDLYGSSWYTDYWSQGTQVTVSS
B14: 214-E8 5GS 212-C12 (VHH)
chain: EVQLVESGGGSVQAGGSLRLSCAASGGTFNPYVMAWFRQAPGNEREFVARIRWSGGDAYYDDSVKGRFAITRDAAKNTVHLQMNSLKPEDTAVYYCAAATYGYGSYTYGGSYDLWGQGTQVTVSSGGGGSEVQLVESGGGLVQPGGSLRLSCAASGFTFGSSDMSWVRQAPGKGPEWVSGINSGGGRTLYADSVKGRFTISRDNAKNTLYLQMNSLKSEDTAVYYCATDLYGSSWYTDYWSQGTQVTVSS

For the first test, the target named is Rabies virus glycoprotein G, Challenge Virus Standard (CVS)-11 strain (Rabies virus, strain CVS-11 (genotype 1 Lyssavirus)) (UniProt O92284). The experiment in a line: cell-based or functional assay.
Rabies virus glycoprotein G, Challenge Virus Standard (CVS)-11 strain (Rabies virus, strain CVS-11 (genotype 1 Lyssavirus)), sequence (O92284 20-524 limits assumed): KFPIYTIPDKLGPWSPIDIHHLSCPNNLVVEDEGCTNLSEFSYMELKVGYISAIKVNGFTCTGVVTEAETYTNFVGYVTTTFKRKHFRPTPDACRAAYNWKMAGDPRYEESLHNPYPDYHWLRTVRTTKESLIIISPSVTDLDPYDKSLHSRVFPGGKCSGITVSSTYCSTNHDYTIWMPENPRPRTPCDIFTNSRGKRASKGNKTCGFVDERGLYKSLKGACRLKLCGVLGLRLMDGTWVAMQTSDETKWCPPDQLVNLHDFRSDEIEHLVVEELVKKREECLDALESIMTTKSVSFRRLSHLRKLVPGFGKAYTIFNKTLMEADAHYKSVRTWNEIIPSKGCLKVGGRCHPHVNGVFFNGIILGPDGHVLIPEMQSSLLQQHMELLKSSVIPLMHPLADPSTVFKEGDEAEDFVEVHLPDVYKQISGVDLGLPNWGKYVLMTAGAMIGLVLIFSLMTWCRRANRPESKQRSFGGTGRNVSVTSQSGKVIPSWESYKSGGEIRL
B1: the CVS-11 neutralizing antibody titer (RFFIT), IU/mg was determined as 308 IU/mg; the CVS-11 neutralizing antibody titer (RFFIT), IU/ml was 394 IU/ml; the CVS-11 neutralizing antibody titer (RFFIT), IU/µM amounted to 4.6 IU/µM; the CVS-11 neutralizing antibody titer (RFFIT), nM IC50 came out at 7.55 nM.
For the molecule B2, the CVS-11 neutralizing antibody titer (RFFIT), IU/mg is 114 IU/mg; the CVS-11 neutralizing antibody titer (RFFIT), IU/ml was found to be 122 IU/ml; the CVS-11 neutralizing antibody titer (RFFIT), IU/µM was determined as 1.71 IU/µM; the CVS-11 neutralizing antibody titer (RFFIT), nM IC50 is 17.7 nM.
On the same counts, the results for B3 are 20 IU/mg, 31 IU/ml, 0.3 IU/µM and 101 nM.

In a further test the target is Rabies virus glycoprotein G, strain CVS-11 (Challenge Virus Standard-11, ATCC VR 959) (Rabies virus, strain CVS-11). The experiment in a line: cell-based or functional assay.
B4 registered a CVS neutralizing antibody titre (RFFIT): IU/mg below 2.38 IU/mg, a CVS neutralizing antibody titre (RFFIT): IU/ml below 0.5 IU/ml, a CVS neutralizing antibody titre (RFFIT): IU/nM below 0.07 IU/nM and a CVS neutralizing antibody titre (RFFIT): nM IC50 above 725 nM.
B5 returned a CVS neutralizing antibody titre (RFFIT): IU/mg of 300 IU/mg, a CVS neutralizing antibody titre (RFFIT): IU/ml of 21 IU/ml, a CVS neutralizing antibody titre (RFFIT): IU/nM of 8.29 IU/nM and a CVS neutralizing antibody titre (RFFIT): nM IC50 of 3.76 nM. The Potency (IU/nM) increase versus monovalent came to 6.4 fold.
On the same counts, the results for B6 are 573 IU/mg, 70.5 IU/ml, 1.6 IU/nM, 1.94 nM and 1.5 fold.
On the same counts, the results for B7 are 385 IU/mg, 385 IU/ml, 10 IU/nM, 3.21 nM and 6.3 fold.
Molecule B8 showed a CVS neutralizing antibody titre (RFFIT): IU/mg of 657 IU/mg, a CVS neutralizing antibody titre (RFFIT): IU/ml of 46 IU/ml, a CVS neutralizing antibody titre (RFFIT): IU/nM of 1.84 IU/nM and a CVS neutralizing antibody titre (RFFIT): nM IC50 of 1.68 nM. In addition, the Potency (IU/nM) increase versus monovalent came to 2.3 fold.
On the same counts, the results for B9 are 322 IU/mg, 998 IU/ml, 8.7 IU/nM, 3.69 nM and 8 fold.
Molecule B10 registered a CVS neutralizing antibody titre (RFFIT): IU/mg of 8220 IU/mg, a CVS neutralizing antibody titre (RFFIT): IU/ml of 1890 IU/ml, a CVS neutralizing antibody titre (RFFIT): IU/nM of 230 IU/nM and a CVS neutralizing antibody titre (RFFIT): nM IC50 of 0.14 nM. This molecule had a Potency (IU/nM) increase versus monovalent of 605 fold.
Molecule B11 yielded a CVS neutralizing antibody titre (RFFIT): IU/mg of 4250 IU/mg, a CVS neutralizing antibody titre (RFFIT): IU/ml of 3760 IU/ml, a CVS neutralizing antibody titre (RFFIT): IU/nM of 93.7 IU/nM and a CVS neutralizing antibody titre (RFFIT): nM IC50 of 0.26 nM. Besides, the Potency (IU/nM) increase versus monovalent was 107 fold.
On to B12, for which the CVS neutralizing antibody titre (RFFIT): IU/mg was 650 IU/mg, the CVS neutralizing antibody titre (RFFIT): IU/ml turned out to be 13 IU/ml, the CVS neutralizing antibody titre (RFFIT): IU/nM worked out at 17.2 IU/nM and the CVS neutralizing antibody titre (RFFIT): nM IC50 came to 1.79 nM. This molecule also came in with a Potency (IU/nM) increase versus monovalent of 63.7 fold.
On the same counts, the results for B13 are 248 IU/mg, 1290 IU/ml, 6.7 IU/nM, 4.79 nM and 4.2 fold.
On the same counts, the results for B14 are 214 IU/mg, 171 IU/ml, 5.68 IU/nM, 5.65 nM and 5.2 fold.
